Reference: article PMC9378701, “SH3 domain regulation of RhoGAP activity: Crosstalk between p120RasGAP and DLC1 RhoGAP” (Nature Communications, 2022)

T1: DLC1 RhoGAP domain (residues 1074-1283), His6-tagged (human, UniProt Q96QB1 1074-1283)
T1 construct: RhoGAP domain of human DLC1A, residues 1074-1283 of UniProt Q96QB1 isoform 2; Vector pET28-MHL; also called DLC1A; His6-DLC1; source: E. coli BL21(DE3) or Rosetta(DE3), purified (Ni-NTA, SEC)
T1 sequence (looked up): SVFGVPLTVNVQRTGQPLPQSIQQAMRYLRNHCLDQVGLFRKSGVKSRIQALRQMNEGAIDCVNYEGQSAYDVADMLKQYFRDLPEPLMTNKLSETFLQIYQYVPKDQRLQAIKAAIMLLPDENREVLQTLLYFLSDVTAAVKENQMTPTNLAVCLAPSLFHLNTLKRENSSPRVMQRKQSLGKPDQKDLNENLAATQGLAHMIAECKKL

B1: p120RasGAP SH3 domain (residues 281-341) (domain or fragment, human, UniProt P20936 281-341, looked up)
chain: RRRVRAILPYTKVPDTDEISFLKGDMFIVHNELEDGWMWVTNLRTDEQGLIVEDLVEEVGR
notes: SH3 domain of human p120RasGAP, residues 281-341 of UniProt P20936; Vector pGEX-6p1; also called SH3 WT; RASA1; source: E. coli BL21(DE3) or Rosetta(DE3), purified (glutathione Sepharose, PreScission cleavage on beads, SEC)

Key:
[1] = biological target: DLC1 RhoGAP (Homo sapiens) (UniProt Q96QB1); assay: kinetics; conditions: cited from earlier work
[2] = biological target: DLC1 RhoGAP (Homo sapiens) (UniProt Q96QB1); assay: ITC; conditions: cited from earlier work
[3] = biological target: T1, DLC1 RhoGAP domain (residues …); assay: crystal structure; copurified complex of DLC1 RhoGAP with p120RasGAP SH3 at 18 mg/ml; 0.2 M magnesium nitrate, 16.5% PEG 3350, hanging drops, ambient temperature (~22 °C); 3.2 Å, four copies of the complex in the asymmetric unit; conditions: both partners purified

Sequence of DLC1 RhoGAP (Homo sapiens) (Q96QB1 1075-1287): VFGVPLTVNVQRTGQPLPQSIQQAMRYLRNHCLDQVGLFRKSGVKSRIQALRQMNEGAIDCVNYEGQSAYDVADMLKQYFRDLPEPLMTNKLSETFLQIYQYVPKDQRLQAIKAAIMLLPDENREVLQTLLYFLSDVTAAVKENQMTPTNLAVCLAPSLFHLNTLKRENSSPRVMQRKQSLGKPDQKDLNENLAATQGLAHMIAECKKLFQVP

Row | Molecule | Ki [1] | Kd [2] | binding result [3]
1 | p120RasGAP SH3 (from UniProt P20936) | 600 nM | 600 nM | –
2 | B1 | – | – | binds
